Measurements: the supplement of paper PMC7125110
± gives the standard error. For part of these data: Variants at the floor of the assay were thinned out.

B1: glmS ribozyme (parent)
chain: AUAAAAGCGCCAGAACUACAGAAAUGUAGUUGACGAGGAGGAGGUUUAUCGAAUUUUCGGCGGAUGCCUCCAAA

Assays:
Conditions in all cases: with glucosamine-6-phosphate
glucosamine-6-phosphate [1] = variants of: B1; experiment: kcat; higher = faster cleavage; RNA array
Method in brief: (§1)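 Glucosamine-6-phosphate in HEPES/KCl/Mg(OAc)2 buffer, at 40 μM to 10 mM, was flowed over barcoded ribozyme variants transcribed in situ by E. coli RNA polymerase on sequenced MiSeq chips. Tracking was through a hybridised Cy3 probe at 37 °C. kobs, kcat and KM came from exponential decay fits and weighted Michaelis–Menten fits of normalised per-tile medians.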

glucosamine-6-phosphate [2] = variants of: B1; experiment: self-cleavage kobs at 40 uM GlcN6P; higher = faster cleavage; RNA array
Method in brief: as §1

glucosamine-6-phosphate [3] = variants of: B1; experiment: self-cleavage kobs at 160 uM GlcN6P; higher = faster cleavage; RNA array
Method in brief: as §1

glucosamine-6-phosphate [4] = variants of: B1; experiment: self-cleavage kobs at 2500 uM GlcN6P; higher = faster cleavage; RNA array
Method in brief: as §1

glucosamine-6-phosphate [5] = variants of: B1; experiment: KM; higher = weaker cofactor use; RNA array
Method in brief: as §1

glucosamine-6-phosphate [6] = variants of: B1; experiment: self-cleavage kobs at 640 uM GlcN6P; higher = faster cleavage; RNA array
Method in brief: as §1

glucosamine-6-phosphate [7] = variants of: B1; experiment: self-cleavage kobs at 10000 uM GlcN6P; higher = faster cleavage; RNA array
Method in brief: as §1

Row | Variant | kcat (glucosamine-6-phosphate [1]) | self-cleavage kobs at 40 uM GlcN6P (glucosamine-6-phosphate [2]) | self-cleavage kobs at 160 uM GlcN6P (glucosamine-6-phosphate [3]) | self-cleavage kobs at 2500 uM GlcN6P (glucosamine-6-phosphate [4]) | KM (glucosamine-6-phosphate [5]) | self-cleavage kobs at 640 uM GlcN6P (glucosamine-6-phosphate [6]) | self-cleavage kobs at 10000 uM GlcN6P (glucosamine-6-phosphate [7])
1 | AUAAAAGCGCCAGAACUACAGAAAUGUAGUUGACGAGGAGGAGGUUUAUCGCAUGUUCGGCGGAUGCCUCCAAA | 5.71e-05 ± 5.1e-06 s⁻¹ | < 1e-05 s⁻¹ | – | – | – | – | –
2 | AUAAAAGCGCCAGAACUACAGAAAUGUAGUUGCCGAGGAGGAGGUAUAUCGAAUUUUCGGCGGAUGCCUCCAAA | 3.08e-05 ± 7.5e-06 s⁻¹ | – | < 1e-05 s⁻¹ | 3.48e-05 ± 1.7e-05 s⁻¹ | – | – | –
3 | AUAAAAGCGCCAGAACUACAGAAAUGUAGUUGACGAGGAGGAGGUUUAUCGAAUUUUCGGCGGUUGCCGCCAAA | 4.17e-05 ± 1.2e-05 s⁻¹ | – | 4.51e-05 ± 1.8e-05 s⁻¹ | 5.01e-05 ± 1.9e-05 s⁻¹ | – | – | –
4 | AUAAAAGCGCCAGAACUACAGAAAUGUAGUUGACGAGGAGGAGAGUUAUCGAAUUUUCGGCGGAUGCCUCCAAA | 0.00378 ± 0.00039 s⁻¹ | 9.22e-05 ± 1.8e-05 s⁻¹ | 0.000285 ± 6.4e-05 s⁻¹ | 0.00218 ± 0.00031 s⁻¹ | 1850 ± 280 µM | 0.000889 ± 0.00016 s⁻¹ | 0.0033 ± 0.0007 s⁻¹
5 | AUAAAAGCGCCAGAACUACAGAAAUGUAGUUGACGAGGAGGAGGUUUAUCGAAUAUUCGGCGGAUGCCUACAAA | 0.00013 ± 1.3e-05 s⁻¹ | 2.79e-05 ± 1.1e-05 s⁻¹ | 8.57e-05 ± 2e-05 s⁻¹ | 0.000155 ± 2.2e-05 s⁻¹ | 116 ± 52 µM | 0.00011 ± 2.1e-05 s⁻¹ | 0.000114 ± 1.4e-05 s⁻¹
6 | AUAAAAGCGCCAGAACUACAGAAAUGUAGUUGACGAGGAGGAGGUUUAUCGUAUUUUCGGCGGAGGCCUCCAAA | 9.59e-05 ± 1.1e-06 s⁻¹ | < 1e-05 s⁻¹ | < 1e-05 s⁻¹ | – | 9460 ± 180 µM | – | 4.93e-05 ± 1.8e-05 s⁻¹
7 | AUAAAAGCGCCAGAACUACAGAAAUGUAGUUGACGAGGAGGAGGUUUAUCGACUUGUCGGCGGAUGCCUCCAAA | 0.00299 ± 0.00066 s⁻¹ | 7.77e-05 ± 1.1e-05 s⁻¹ | 0.000166 ± 4.2e-05 s⁻¹ | 0.00165 ± 0.00035 s⁻¹ | 1830 ± 570 µM | 0.000851 ± 0.00012 s⁻¹ | 0.00254 ± 0.00039 s⁻¹
8 | AUAAAAGCGCCAGAACUACAGAAAUGUAGUUGACGAGGAGGAGGUUUAUCGAAUUUUCGGCGGGGUCCUGCAAA | 2.23e-05 ± 6.3e-06 s⁻¹ | – | – | – | – | – | –
9 | AUAAAAGCGCCAGAACUACAGAAAUGUAGAUGACGAGGAGGAGGUUUAGCGAAUUUUCGGCGGAUGCCUCCAAA | 0.000169 ± 3.4e-05 s⁻¹ | – | – | 7.22e-05 ± 1.2e-05 s⁻¹ | 3780 ± 1600 µM | – | 0.000119 ± 2.1e-05 s⁻¹
10 | AUAAAAGCGCCAGAACUACAGAAAUGUAGUUGACGAGCAGGAGGUUUAUCGCAUUUUCGGCGGAUGCCUCCAAA | < 1e-05 s⁻¹ | < 1e-05 s⁻¹ | < 1e-05 s⁻¹ | – | – | – | < 1e-05 s⁻¹
11 | AUAAAAGCGCCAGAACUACAGAAAUGUAGUUGACGAGGAGGAGGUUUAUCGAAUUUUCGGCUGAUGGUUCCAAA | 1.17e-05 ± 4.6e-06 s⁻¹ | – | – | – | – | – | –
12 | AUAAAAGCGCCAGAACUACAGAAAUGUAGUUAACGAGGAGGAGGUUUAUCGAGUUUUCGGCGGAUGCCUCCAAA | 0.00285 ± 0.00095 s⁻¹ | 5.52e-05 ± 9e-06 s⁻¹ | 0.000222 ± 3.2e-05 s⁻¹ | 0.00106 ± 0.00021 s⁻¹ | 1980 ± 950 µM | 0.00114 ± 0.0002 s⁻¹ | 0.00294 ± 0.00036 s⁻¹
13 | AUAAAAGCGCCAGAACUACAGAAAUGUAGUUGACGAGGAGGAGGUUUAUCAAAUUUUCGGCGGAUGCCACCAAA | 1.6e-05 ± 2.9e-06 s⁻¹ | – | – | – | – | – | –
14 | AUAAAAGCGCCAGGACUACAGAAAUGUAGUUGACGAGGAGGAGGUUUAUCGAAUUUUCGGCGGAUGCCUACAAA | 0.000511 ± 0.0001 s⁻¹ | 6.67e-05 ± 5.7e-06 s⁻¹ | 0.000287 ± 4.4e-05 s⁻¹ | 0.000484 ± 8.1e-05 s⁻¹ | 256 ± 76 µM | 0.000328 ± 4.7e-05 s⁻¹ | –
15 | AUAAAAGCGCCAGAAUUACAGAAAUGUAGUUGACGAGGAGGAGGUUUAUCGAAUUUUCGGCGGAUGGCUCCAAA | 0.000799 ± 5.5e-05 s⁻¹ | 1.87e-05 ± 6.4e-06 s⁻¹ | 7.2e-05 ± 9.4e-06 s⁻¹ | 0.000566 ± 6.2e-05 s⁻¹ | 1570 ± 190 µM | 0.000229 ± 2.2e-05 s⁻¹ | 0.000664 ± 5.4e-05 s⁻¹
16 | AUAAAAGCGCCAGAACUACAGAAAUGUAGUUGACGAGGAGGAGUUUUAUCGAAUUUUCGGCGGAGGCCUCCAAA | 0.000347 ± 2.4e-05 s⁻¹ | – | – | 5.71e-05 ± 1.8e-05 s⁻¹ | – | – | 0.000152 ± 2.6e-05 s⁻¹
17 | AUAAAAGCGCCAGAACUACAGAAAUGUAGUCGACGAGGAGGAGGUUUAUUGAAUUUUCGGCGGAUGCCUCCAAA | < 1e-05 s⁻¹ | – | – | – | – | – | –
18 | AUAAAAGCGUCAGAACUACAGAAAUGUAGUUUACGAGGAGGAGGUUUAUCGAAUUUUCGGCGGAUGCCUCCAAA | 4.97e-05 ± 3.1e-06 s⁻¹ | – | < 1e-05 s⁻¹ | 5.05e-05 ± 1.2e-05 s⁻¹ | – | – | 4.67e-05 ± 6.1e-06 s⁻¹
19 | AUAAAAGCGACAGAACUACAGAAAUGUAGAUGACGAGGAGGAGGUUUAUCGAAUUUUCGGCGGAUGCUUCCAAA | 7.99e-05 ± 2.3e-05 s⁻¹ | – | 8.08e-05 ± 2.5e-05 s⁻¹ | – | – | – | –
